# Laboratory results from PMC4186791, “The Intrinsically Disordered Regions of the Drosophila melanogaster Hox Protein Ultrabithorax Select Interacting Proteins Based on Partner Topology” (PLoS ONE, 2014).
# B1: 14-3-3ε (natural protein, Drosophila melanogaster, UniProt P92177 1-262, looked up)
# chain: MTERENNVYKAKLAEQAERYDEMVEAMKKVASMDVELTVEERNLLSVAYKNVIGARRASWRIITSIEQKEENKGAEEKLEMIKTYRGQVEKELRDICSDILNVLEKHLIPCATSGESKVFYYKMKGDYHRYLAEFATGSDRKDAAENSLIAYKAASDIAMNDLPPTHPIRLGLALNFSVFYYEILNSPDRACRLAKAAFDDAIAELDTLSEESYKDSTLIMQLLRDNLTLWTSDMQAEEVDPNAGDGEPKEQIQDVEDQDVS
# notes: 14-3-3ε, Drosophila melanogaster; source: yeast two-hybrid fusion (pB42, S. cerevisiae EGY48)
# B2: Ribosomal protein L22 (natural protein)
# chain: not shown
# notes: Ribosomal protein L22 (RpL22), Drosophila melanogaster; also called RpL22; source: yeast two-hybrid fusion (pB42, S. cerevisiae EGY48)
# B3: Dishevelled (natural protein, Drosophila melanogaster, UniProt P51140 1-623, looked up)
# chain: MDADRGGGQETKVIYHIDDETTPYLVKIPIPSAQVTLRDFKLVLNKQNNNYKYFFKSMDADFGVVKEEIADDSTILPCFNGRVVSWLVSADGTNQSDNCSELPTSECELGMGLTNRKLQQQQQQHQQQQQQQQQQHQQQQQQQQQQVQPVQLAQQQQQQVLHHQKMMGNPLLQPPPLTYQSASVLSSDLDSTSLFGTESELTLDRDMTDYSSVQRLQVRKKPQRRKKRAPSMSRTSSYSSITDSTMSLNIITVSINMEAVNFLGISIVGQSNRGGDGGIYVGSIMKGGAVALDGRIEPGDMILQVNDVNFENMTNDEAVRVLREVVQKPGPIKLVVAKCWDPNPKGYFTIPRTEPVRPIDPGAWVAHTQALTSHDSIIADIAEPIKERLDQNNLEEIVKAMTKPDSGLEIRDRMWLKITIPNAFIGADAVNWVLENVEDVQDRREARRIVSAMLRSNYIKHTVNKLTFSEQCYYVVNEERNPNLLGRGHLHPHQLPHGHGGHALSHADTESITSDIGPLPNPPIYMPYSATYNPSHGYQPIQYGIAERHISSGSSSSDVLTSKDISASQSDITSVIHQANQLTIAAHGSNKSSGSSNRGGGGGGGGGGNNTNDQDVSVFNYVL
# notes: Dishevelled (Dsh), Drosophila melanogaster; also called Dsh; source: yeast two-hybrid fusion (pB42, S. cerevisiae EGY48)
# Biological target: T1, UbxIb Δ103–216 (Drosophila melanogaster, UniProt P83949 1-389, Δ103-216)
# T1 construct: source: yeast two-hybrid fusion (pLexA, S. cerevisiae EGY48)
# T1 sequence (P83949 other isoform, or with tags, fused parts or gaps Δ103-216 | Δ103-216 | mutant): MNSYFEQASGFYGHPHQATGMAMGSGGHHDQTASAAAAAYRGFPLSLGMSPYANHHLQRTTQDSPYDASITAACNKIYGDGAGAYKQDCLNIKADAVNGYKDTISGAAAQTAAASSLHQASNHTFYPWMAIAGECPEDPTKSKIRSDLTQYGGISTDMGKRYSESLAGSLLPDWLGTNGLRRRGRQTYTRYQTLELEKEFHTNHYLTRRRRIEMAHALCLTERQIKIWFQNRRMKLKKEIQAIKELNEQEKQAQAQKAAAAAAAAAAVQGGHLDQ
# Assay: two-hybrid; LexA-Ubx variant (pLexA) and B42-partner (pB42) co-transformed into S. cerevisiae EGY48 carrying p8op-LacZ; blue/white colonies on X-gal and liquid β-galactosidase (ONPG) assay after galactose induction at 30°C, reported in Miller units
# Conditions: partners not purified
row,percent of reporter signal lost relative to UbxIb Pro4,Binder
1,≥ 59%,B1
2,≥ 59%,B2
3,≥ 59%,B3

# Biological target: T2, UbxIb N103 Pro4 (Drosophila melanogaster, UniProt P83949 1-389, amino acids 2–102 removed (N103) | A226P | Q233P)
# T2 construct: Ultrabithorax (Ubx), Drosophila melanogaster, isoform Ib, from which amino acids 2–102 (Region 1) are removed, with the Pro4 mutations; Form is the full-length isoform Ib less the stated deletion; also called UbxIb N103 Pro4 (0, D2,0, D4, S5); source: yeast two-hybrid fusion (pLexA, S. cerevisiae EGY48)
# T2 sequence (P83949 other isoform, or with tags, fused parts or gaps with the stated changes): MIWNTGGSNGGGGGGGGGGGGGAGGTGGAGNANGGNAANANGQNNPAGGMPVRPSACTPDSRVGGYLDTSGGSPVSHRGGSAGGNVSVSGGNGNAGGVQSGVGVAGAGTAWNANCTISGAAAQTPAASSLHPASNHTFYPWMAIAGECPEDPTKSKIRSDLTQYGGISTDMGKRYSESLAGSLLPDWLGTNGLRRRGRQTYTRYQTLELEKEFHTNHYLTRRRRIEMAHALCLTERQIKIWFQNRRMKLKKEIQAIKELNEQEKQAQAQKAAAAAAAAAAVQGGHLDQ
# Assay: as above
# Conditions: partners not purified
row,percent of reporter signal lost relative to UbxIb Pro4,Binder
1,≥ 59%,B1
2,≥ 59%,B2
3,≥ 59%,B3
